Assays:
[1] = target: T1, Amino acid residues 108-127 of human TNFR2 (human); assay: ELISA on plate-coated linear peptide S03935
T1 sequence (peptide): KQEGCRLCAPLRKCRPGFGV

[2] = target: T2, Amino acid residues 106-125 of human TNFR2 (human); assay: ELISA on plate-coated linear peptide S04073
T2 sequence (peptide): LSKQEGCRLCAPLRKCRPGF

[3] = target: T3, Amino acid residues 1-20 of human TNFR2 (human); assay: ELISA on plate-coated linear peptide S04062
T3 peptide: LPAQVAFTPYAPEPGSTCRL
Protocol: (§1) ELISA was also used to determine linear epitopes present on the extracellular surface of TNFR2. Linear peptides corresponding to various regions within the TNFR2 primary sequence were purchased from GenScript (Piscataway, NJ), diluted in coating buffer and placed on Immulon 4HBX Flat Bottom Microtiter Plates (Thermo Scientific) at a concentration of 1 µg/well. Primary TNFR2 agonistic antibodies (0.1 µg/well) were incubated with substrates. Secondary antibodies against rodent IgG were used to detect the primary antibodies. Absorbance was measured using the SPECTRAMAX^{®} 190 Absorbance Plate Reader and analyzed with SoftMax Pro 6.3 (Molecular Devices).

[4] = target: T4, Amino acid residues 98-117 of human TNFR2 (human); assay: ELISA on TNFR2 peptide, antibody alone
T4 sequence (peptide): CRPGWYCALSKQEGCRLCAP

[5] = target: T5, Amino acid residues 26-45 of human TNFR2 (human); assay: ELISA on TNFR2 peptide, antibody alone
T5 sequence (peptide): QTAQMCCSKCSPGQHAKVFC

[6] = target: T6, Amino acid residues 34-53 of human TNFR2 (human); assay: ELISA on TNFR2 peptide, antibody alone
T6 sequence (peptide): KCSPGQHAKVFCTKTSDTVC

[7] = target: T7, Amino acid residues 154-174 of human TNFR2 (human); assay: ELISA on plate-coated linear peptide S04079
T7 construct: The printed range 154-174 spans 21 residues, but the printed peptide has 20
T7 peptide: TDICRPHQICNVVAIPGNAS
Protocol: as §1

[8] = target: T8, Amino acid residues 162-181 of human TNFR2 (human); assay: ELISA, immobilised TNFR2 peptide fragments, TNFRAG1 as primary antibody
T8 peptide: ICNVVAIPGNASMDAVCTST
Protocol: (§2) The binding of antibody to each of the synthesized peptides was tested in an ELISA format. Surface-immobilized peptide arrays were incubated with primary antibody solution (overnight at 4° C.). After washing, the peptide arrays were incubated with a 1/1000 dilution of an appropriate antibody peroxidase conjugate (SBA) for one hour at 25° C. After washing, the peroxidase substrate 2,2′-azino-di-3- ethylbenzthiazoline sulfonate (ABTS) and 2 µl/ml of 3 percent H₂O₂ were added. After one hour, the color development was measured. The color development was quantified with a charge coupled device (CCD) - camera and an image processing system. The values obtained from the CCD camera range from 0 to 3000 mAU, similar to a standard 96-well plate ELISA-reader.
(§3) Affinity is reported qualitatively using a categorical four-point scale, such that an affinity score of “0” denotes lowest affinity and an affinity score of “4” denotes highest affinity.

[9] = target: T9, Amino acid residues 130-149 of human TNFR2 (human); assay: as above
T9 peptide: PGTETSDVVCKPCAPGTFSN
Protocol: as §2, §3

[10] = target: T10, Amino acid residues 170-189 of human TNFR2 (human); assay: as above
T10 peptide: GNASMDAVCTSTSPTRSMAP
Protocol: as §2, §3

[11] = target: T11, Amino acid residues 42-61 of human TNFR2 (human); assay: as above
T11 peptide: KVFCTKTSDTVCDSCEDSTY
Protocol: as §2, §3

[12] = target: T8, Amino acid residues 162-181 of human …; assay: ELISA on plate-coated linear peptide S04080
Protocol: as §1

[13] = target: T5, Amino acid residues 26-45 of human TNFR2 (human); assay: ELISA on plate-coated linear peptide S03933
[14] = target: T4, Amino acid residues 98-117 of human TNFR2 (human); assay: ELISA on plate-coated linear peptide S04072; Affinity cell of this row is '1+'
[15] = target: T12, Amino acid residues 114-133 of human TNFR2 (human); assay: ELISA on plate-coated linear peptide S04074
T12 peptide: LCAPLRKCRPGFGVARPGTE
Protocol: as §1

[16] = target: T13, Amino acid residues 9-28 of human TNFR2 (human); assay: ELISA on TNFR2 peptide, antibody alone
T13 peptide: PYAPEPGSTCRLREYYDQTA
Protocol: as §1

[17] = target: T10, Amino acid residues 170-189 of human …; assay: ELISA on TNFR2 peptide, antibody alone
Protocol: as §1

[18] = target: T14, Amino acid residues 17-36 of human TNFR2 (human); assay: ELISA on TNFR2 peptide, antibody alone
T14 peptide: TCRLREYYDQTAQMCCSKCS
Protocol: as §1

[19] = target: T11, Amino acid residues 42-61 of human TNFR2; assay: ELISA on TNFR2 peptide, antibody alone
Protocol: as §1

[20] = target: T15, Amino acid residues 58-77 of human TNFR2 (human); assay: ELISA on TNFR2 peptide, antibody alone
T15 peptide: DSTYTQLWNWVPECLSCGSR
Protocol: as §1

[21] = target: T16, Amino acid residues 50-69 of human TNFR2 (human); assay: ELISA on TNFR2 peptide, antibody alone
T16 peptide: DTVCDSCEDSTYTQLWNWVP
Protocol: as §1

[22] = target: T5, Amino acid residues 26-45 of human TNFR2 (human); assay: ELISA on plate-coated linear peptide S03933; Affinity cell of this row is '1+'
[23] = target: T17, Amino acid residues 146-165 of human TNFR2 (human); assay: ELISA on plate-coated linear peptide S04078
T17 peptide: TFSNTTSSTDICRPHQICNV
Protocol: as §1

[24] = target: Full-length human TNFR2 (human) (UniProt P20333); assay: ELISA, immobilised human TNFR2 / TNFR2 peptide fragments, TNFRAG1 as primary antibody

B1: agonistic TNFR2 antibody TNFRAG1 (antibody, V domains shown)
VH: EVQLQQFGAELVKPGASVKISCKASGYTFTDYNIDWVKQSHGKSLEWIGDINPNYDSTSYSQKFRGKATLTVDKSSSTAYMELRSLTSEDTAVYYCARGNSWYFDVWGAGTTVTVSS
VL: QIVLTQSPALMSASPGEKVTMTCSASSSVRYMYWYQQKPRSSPKPWIYLTSNLASGVPARFSGSGSGTSYSLTISSMEAEDAATYYCQQWSSNPLTFGAGTKLELK
notes: It was detected with secondary antibodies against rodent IgG; also called monoclonal TNFR2 antibody TNFRAG1; TNFR2 agonist antibody
Q: For B1, which Affinity [1] is on record?
A: 2

Q: What about the Affinity [2] of the same binder?
A: 2

Q: Does B1 bind [3]?
A: no binding

Q: What about the Affinity [4] of the same binder?
A: 1

Q: What about the Reading [4] of the same binder?
A: 2

Q: And the Affinity [5]?
A: 1

Q: And the Reading [5]?
A: 0.1

Q: What about the Affinity [6] of the same binder?
A: 1

Q: Does B1 bind [7]?
A: no binding

Q: And the “Affinity Score” value [8]?
A: 0 affinity score (0 lowest to 4 highest)

Q: And the “Affinity Score” value [9]?
A: 0 affinity score (0 lowest to 4 highest)

Q: What about the “Affinity Score” value [10] of the same binder?
A: 0 affinity score (0 lowest to 4 highest)

Q: And the “Affinity Score” value [11]?
A: 0 affinity score (0 lowest to 4 highest)

Q: Does B1 bind [12]?
A: no binding

Q: What about the Affinity [13] of the same binder?
A: 1

Q: And the Reading [14]?
A: 0

Q: Does B1 bind [15]?
A: no binding

Q: Does B1 bind [16]?
A: no binding

Q: Does B1 bind [17]?
A: no binding

Q: Does B1 bind [18]?
A: no binding

Q: Does B1 bind [19]?
A: no binding

Q: Does B1 bind [20]?
A: no binding

Q: Does B1 bind [21]?
A: no binding

Q: What about the Reading [22] of the same binder?
A: 0

Q: Does B1 bind [23]?
A: no binding

Q: And the Affinity Score (affinity score (0 lowest to 4 highest)) [24]?
A: 4
